Results: patent US20240024520A1 (UCB, published 2024)

Target: T1, human complement component C5 (human, UniProt P01031 19-673; P01031 678-1676)
T1 construct: mature; Mature C5 is a disulphide-linked beta and alpha chain cut from one precursor; Terbium-labelled in the FRET assays, biotinylated in part of the phage ELISA; also called human C5; C5-Tb
Test: SPR multi-cycle kinetics, human C5 immobilised, mean of n=3

T1 sequence (P01031 19-673 limits assumed, chain 1 of 2): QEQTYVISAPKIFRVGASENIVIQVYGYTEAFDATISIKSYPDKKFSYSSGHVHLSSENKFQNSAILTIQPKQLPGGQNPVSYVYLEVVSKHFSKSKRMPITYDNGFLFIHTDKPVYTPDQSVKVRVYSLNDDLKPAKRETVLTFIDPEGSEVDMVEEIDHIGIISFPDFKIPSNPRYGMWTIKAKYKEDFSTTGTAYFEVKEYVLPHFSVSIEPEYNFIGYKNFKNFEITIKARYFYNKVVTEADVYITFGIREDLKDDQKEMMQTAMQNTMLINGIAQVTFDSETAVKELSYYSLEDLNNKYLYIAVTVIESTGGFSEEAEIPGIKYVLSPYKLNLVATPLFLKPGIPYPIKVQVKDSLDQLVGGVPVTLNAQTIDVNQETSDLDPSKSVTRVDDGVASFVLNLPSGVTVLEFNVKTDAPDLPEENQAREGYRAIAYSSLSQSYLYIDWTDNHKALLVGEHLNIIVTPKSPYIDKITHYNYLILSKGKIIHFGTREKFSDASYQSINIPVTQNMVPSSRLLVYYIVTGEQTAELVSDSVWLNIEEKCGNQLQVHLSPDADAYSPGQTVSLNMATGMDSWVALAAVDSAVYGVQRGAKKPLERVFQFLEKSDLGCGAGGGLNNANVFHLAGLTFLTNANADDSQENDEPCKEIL
T1 sequence (P01031 678-1676 limits assumed, chain 2 of 2): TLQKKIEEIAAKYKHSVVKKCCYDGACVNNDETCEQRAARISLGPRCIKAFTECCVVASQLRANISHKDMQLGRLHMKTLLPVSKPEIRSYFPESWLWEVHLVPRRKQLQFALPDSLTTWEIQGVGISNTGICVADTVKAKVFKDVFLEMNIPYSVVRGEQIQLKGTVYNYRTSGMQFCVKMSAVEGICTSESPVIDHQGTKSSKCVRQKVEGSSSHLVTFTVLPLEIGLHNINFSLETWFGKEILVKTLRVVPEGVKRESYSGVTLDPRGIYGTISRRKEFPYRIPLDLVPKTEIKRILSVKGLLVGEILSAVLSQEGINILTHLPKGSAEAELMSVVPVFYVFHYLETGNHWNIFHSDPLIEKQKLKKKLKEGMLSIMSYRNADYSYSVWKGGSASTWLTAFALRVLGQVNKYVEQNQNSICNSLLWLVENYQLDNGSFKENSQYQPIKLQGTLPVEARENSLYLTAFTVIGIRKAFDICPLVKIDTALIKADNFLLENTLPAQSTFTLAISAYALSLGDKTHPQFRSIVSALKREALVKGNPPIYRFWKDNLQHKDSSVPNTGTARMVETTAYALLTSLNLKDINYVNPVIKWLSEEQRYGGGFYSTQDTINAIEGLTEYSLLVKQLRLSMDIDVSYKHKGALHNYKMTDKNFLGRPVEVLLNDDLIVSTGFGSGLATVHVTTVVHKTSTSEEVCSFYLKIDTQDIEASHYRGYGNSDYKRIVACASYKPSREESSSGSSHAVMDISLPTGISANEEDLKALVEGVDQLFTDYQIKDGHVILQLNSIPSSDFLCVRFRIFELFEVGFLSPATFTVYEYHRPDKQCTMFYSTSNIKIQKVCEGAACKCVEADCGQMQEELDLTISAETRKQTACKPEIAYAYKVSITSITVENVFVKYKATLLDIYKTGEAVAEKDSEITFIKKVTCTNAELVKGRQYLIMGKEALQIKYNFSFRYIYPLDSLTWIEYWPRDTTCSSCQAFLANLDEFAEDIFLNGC

Binder | Kd | koff | kon
TCPEGWSECGVAIYGYECGRWGCGHALNSGPNISPYVST [K92chemFE F26A] | 18.8 nM | 0.00328 s⁻¹ | 184000 M⁻¹ s⁻¹
TCPEGWSECGVAIYGAECGRWGCGHFLNSGPNISPYVST [K92chemFE Y16A] | 221 nM | 0.786 s⁻¹ | 
TCPEGWSECGVAIAGYECGRWGCGHFLNSGPNISPYVST [K92chemFE Y14A] | 3.62 nM | 0.0001 s⁻¹ | 27200 M⁻¹ s⁻¹
TCPEGASECGVAIYGYECGRWGCGHFLNSGPNISPYVST [K92chemFE W6A] | 219 nM | 0.00157 s⁻¹ | 7980 M⁻¹ s⁻¹
TCPEGWSECGVAIYGYECGRAGCGHFLNSGPNISPYVST [K92chemFE W21A] | 497 nM | 0.00848 s⁻¹ | 17400 M⁻¹ s⁻¹
TCPEGWSECGVAIYGYECGRHGCGHFLNSGPNISPYVST [K92chemFE W21H] | 1.48 nM | 0.000612 s⁻¹ | 425000 M⁻¹ s⁻¹
